Reference: article PMC11582626 (Nature Communications, 2024)

Experiments:
[1] = molecular target: h5B11-YTE, h5B11 with the YTE mutation (M252Y/S254T/T256E) in the Fc region (human); assay: SPR
[2] = molecular target: RSV B18537 prefusion-stabilized F glycoprotein variant sc9-10 DS-Cav1 (respiratory syncytial virus strain B18537); assay: cryo-EM structure
[3] = molecular target: RSV A2 prefusion-stabilized F glycoprotein variant DS-Cav1 (respiratory syncytial virus strain A2); assay: cryo-EM structure
[4] = molecular target: T1, RSV B18537 prefusion-stabilized F glycoprotein variant DS-Cav1 (Human respiratory syncytial virus B, …, stabilised); assay: SPR
T1 chain 1: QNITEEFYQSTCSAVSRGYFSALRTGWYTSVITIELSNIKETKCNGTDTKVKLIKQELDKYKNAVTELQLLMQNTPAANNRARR
T1 chain 2: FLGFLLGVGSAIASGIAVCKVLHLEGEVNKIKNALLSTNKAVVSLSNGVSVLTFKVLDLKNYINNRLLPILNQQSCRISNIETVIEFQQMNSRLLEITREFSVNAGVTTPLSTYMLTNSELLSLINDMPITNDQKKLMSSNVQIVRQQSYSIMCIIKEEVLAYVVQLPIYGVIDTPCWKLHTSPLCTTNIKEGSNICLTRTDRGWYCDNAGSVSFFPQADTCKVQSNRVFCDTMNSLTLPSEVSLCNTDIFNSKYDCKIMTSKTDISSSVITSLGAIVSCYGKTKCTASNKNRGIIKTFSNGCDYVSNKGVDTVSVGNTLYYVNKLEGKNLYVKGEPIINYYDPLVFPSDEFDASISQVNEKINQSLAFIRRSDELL

[5] = molecular target: RSV A2 post-fusion F protein (Human respiratory syncytial virus A, …, UniProt P03420); assay: ELISA
Sequence of RSV A2 post-fusion F protein (P03420 whole entry, looked up, the tested form may be a part): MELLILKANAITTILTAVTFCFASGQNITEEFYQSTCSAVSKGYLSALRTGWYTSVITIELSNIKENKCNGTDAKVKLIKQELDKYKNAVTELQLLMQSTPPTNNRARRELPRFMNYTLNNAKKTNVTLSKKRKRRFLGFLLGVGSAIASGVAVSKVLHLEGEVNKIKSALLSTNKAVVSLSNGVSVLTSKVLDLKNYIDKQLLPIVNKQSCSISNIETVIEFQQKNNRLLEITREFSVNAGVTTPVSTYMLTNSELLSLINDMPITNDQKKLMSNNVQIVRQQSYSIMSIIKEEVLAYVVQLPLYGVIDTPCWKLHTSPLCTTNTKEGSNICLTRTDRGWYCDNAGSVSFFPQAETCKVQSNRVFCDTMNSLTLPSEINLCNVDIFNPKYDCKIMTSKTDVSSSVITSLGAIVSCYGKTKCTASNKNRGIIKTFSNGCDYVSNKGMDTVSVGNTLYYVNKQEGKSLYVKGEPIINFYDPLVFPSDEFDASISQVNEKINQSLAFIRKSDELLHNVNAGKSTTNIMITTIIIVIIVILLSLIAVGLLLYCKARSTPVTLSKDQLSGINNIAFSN

[6] = molecular target: RSV B18537 post-fusion F protein (Human respiratory syncytial virus B, …, UniProt P13843); assay: ELISA
Sequence of RSV B18537 post-fusion F protein (P13843 whole entry, looked up, the tested form may be a part, one chain of several): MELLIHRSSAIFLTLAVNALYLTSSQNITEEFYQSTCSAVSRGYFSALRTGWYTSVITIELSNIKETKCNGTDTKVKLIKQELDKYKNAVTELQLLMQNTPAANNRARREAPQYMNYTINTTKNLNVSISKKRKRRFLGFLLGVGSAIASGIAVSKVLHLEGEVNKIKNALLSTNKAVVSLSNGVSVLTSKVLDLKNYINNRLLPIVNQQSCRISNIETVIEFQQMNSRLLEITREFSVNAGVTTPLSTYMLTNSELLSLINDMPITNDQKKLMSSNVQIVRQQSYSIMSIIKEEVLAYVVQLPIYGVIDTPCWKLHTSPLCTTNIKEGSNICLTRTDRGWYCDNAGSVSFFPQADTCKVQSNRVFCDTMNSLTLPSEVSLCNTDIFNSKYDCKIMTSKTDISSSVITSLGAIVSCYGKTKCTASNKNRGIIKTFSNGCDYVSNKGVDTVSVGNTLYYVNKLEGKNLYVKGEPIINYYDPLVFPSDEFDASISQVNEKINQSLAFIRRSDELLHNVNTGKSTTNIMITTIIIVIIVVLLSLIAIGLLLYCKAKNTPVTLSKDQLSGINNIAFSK

[7] = molecular target: RSV B18537 prefusion-stabilized F glycoprotein variant DS-Cav1 (respiratory syncytial virus strain B18537)
[8] = molecular target: RSV B18537 prefusion-stabilized F glycoprotein variant DS-Cav1 (respiratory syncytial virus strain B18537); assay: SPR

human neonatal FcR (hFcRn) (from UniProt P55899;P61769) (receptor)
fold increase in affinity over h5B11-WT [1]: 8 fold

RSV B18537 prefusion-stabilized F glycoprotein variant sc9-10 DS-Cav1 (natural protein)
stoichiometry N [2]: 3

RSV A2 prefusion-stabilized F glycoprotein variant DS-Cav1 (natural protein)
stoichiometry N [3]: 3

B1: 5B11 Fab (antigen-binding fragment of murine 5B11) (Fab, V domains shown)
VH: QIQLVQSGPELKKPGETVKISCKASGYTFTDYSMHWLKQAPGKGLKWMGWITTETGEPTYADDFKGRFAFSLETSASTAYLQINNLKNEDTGIYFCARYYYGPFYWGQGTLVTVST
VL: DIQMTQSPASLSASVGETVTITCRSSGNIHNFLTWYQQKQGKSPQFLVYNAKTLADGVSSRFSGSGSGTQFSLKINSLQPEDFGIYYCQHFWTTPYTFGGGTKLEIK
Kd [4]: 0.124 nM

B2: h5B11, humanized version of 5B11 (human IgG1, kappa) (antibody, V domains shown)
VH: QIQLVQSGPELKKPGASVKISCKASGYTFTDYSMHWLKQAPGKGLKWMGWITTETGEPTYADDFKGRFAFSLDTSASTAYLQISSLKAEDTGVYFCARYYYGPFYWGQGTLVTVSS
VL: DIQMTQSPSSLSASVGDRVTITCRSSGNIHNFLTWYQQKPGKSPQFLVYNAKTLADGVPSRFSGSGSGTQFTLTISSLQPEDFGIYYCQHFWTTPYTFGGGTKVEIK
binding result [5]: no binding
binding result [6]: no binding

B3: 5B11, murine monoclonal antibody (mouse IgG2a, kappa) (antibody, V domains shown)
VH: QIQLVQSGPELKKPGETVKISCKASGYTFTDYSMHWLKQAPGKGLKWMGWITTETGEPTYADDFKGRFAFSLETSASTAYLQINNLKNEDTGIYFCARYYYGPFYWGQGTLVTVST
VL: DIQMTQSPASLSASVGETVTITCRSSGNIHNFLTWYQQKQGKSPQFLVYNAKTLADGVSSRFSGSGSGTQFSLKINSLQPEDFGIYYCQHFWTTPYTFGGGTKLEIK
binding result [5]: no binding
binding result [6]: no binding

B4: nirsevimab (biosimilar, human IgG1, kappa) (antibody, V domains shown)
VH: QVQLVQSGAEVKKPGSSVMVSCQASGGLLEDYIINWVRQAPGQGPEWMGGIIPVLGTVHYGPKFQGRVTITADESTDTAYMELSSLRSEDTAMYYCATETALVVSETYLPHYFDNWGQGTLVTVSS
VL: DIQMTQSPSSLSAAVGDRVTITCQASQDIVNYLNWYQQKPGKAPKLLIYVASNLETGVPSRFSGSGSGTDFSLTISSLQPEDVATYYCQQYDNLPLTFGGGTKVEIK
plaque reduction neutralization of RSV B18537, IC50 [7]: 0.0285 µg/mL

B5: nirsevimab Fab (Fab, V domains shown)
VH: QVQLVQSGAEVKKPGSSVMVSCQASGGLLEDYIINWVRQAPGQGPEWMGGIIPVLGTVHYGPKFQGRVTITADESTDTAYMELSSLRSEDTAMYYCATETALVVSETYLPHYFDNWGQGTLVTVSS
VL: DIQMTQSPSSLSAAVGDRVTITCQASQDIVNYLNWYQQKPGKAPKLLIYVASNLETGVPSRFSGSGSGTDFSLTISSLQPEDVATYYCQQYDNLPLTFGGGTKVEIK
Kd [8]: > 800 nM
